Data reported in patent publication US20220195015A1 (published 2022).
Positions count from the first letter of the chain named.

B1: C050 (antibody, V domains shown)
VH: EVQLVESGGGLFQPGGSLRLSCAASGFSVRNNYVSWVRQAPGKGLEWVSVIYSGGTTYYADSVKGRFTISRDISENTLYLQMNSLRAEDTAVYYCAREGDVEGLHDFWSGYSRDRYYFDYWGQGTLVTVSS
VL: QSALTQPASVSGSPGQSIIISCTGTSGDIGGYNYVSWYQQHPGKAPKLMIYDVSFRPSGVSNRFSGSKSDNTASLTISGLQAEDEADYYCSSFTGNNTRVFGTGTKVTVL
B2: C053 (antibody, V domains shown)
VH: B1 VH with F12I, S28I, R30S, V34M, E46D, I73N, E75K, L104Y, F107S
VL: QSALTQPASVSGSPGQSITISCTGSSSDVGGYNFVSWYQQHPGRAPKLMIYDVSNRPSGVSNRFSGSKSGNTASLTISGLQVEDEADYYCSSYTNNNTRVFGTGTKVTVL
B3: C164 (antibody, V domains shown)
VH: EVQLVESGGGLVQPGGSLRLSCAASGFSVSTKYMTWVRQAPGKGLEWVSVLYSGGSDYYADSVKGRFTISRDNSKNALYLQMNSLRVEDTGVYYCARDSSEVRDHPGHPGRSVGAFDIWGQGTMVTVSS
VL: QSALTQPASVSGSPGQSITISCTGTSNDVGSYTLVSWYQQYPGKAPKLLIFEVTKRSSGISNRFSGSKSGNTASLTISGLQGEDEADYYCCSYAGASTFVFGGGTKLTVL
B4: C055 (antibody, V domains shown)
VH: B3 VH with G55R, S56T, N73S, A77I, N83S, V92F, G120S
VL: B3 VL with T19A, V53D, T54S, K55Q, Q81R, A96S, S97H, L107V
B5: C143 (antibody, V domains shown)
VH: B3 VH
VL: B3 VL with V53G
B6: C051 (antibody, V domains shown)
VH: EVQLVESGGGLIQAGGSLRLSCAASGFGVRNNYMSWVRQAPGKGLEWVSVIYSGGTTYYADSVKGRFTISRDNSKNTVFLQMNSLRAEDTAVYYCAREGDVEGFSDLWSGYSRDRYYFDYWGQGTLVTVSS
VL: QSALTQPASVSGSPGQSITFSCTGTSSDVGGYNYVSWYQQYPGKAPKLLIYDVTNRPSGVSDRFSGSKSGNTASLTISGLQAEDEADYYCSSFTSSNTRVFGTGTKVTVL
B7: C058 (antibody, V domains shown)
VH: QVQLVQSGAEVKKPGASVKVSCKASGYIFTDYSMHWVRQAPGQGLEWIGWVNPNSGGTNYAQKFQGWVTMARDTSITTVYMELSRLKSDDTAVYFCARGPLFHRLVYDFWSGYHDGFDMWGQGTMVTVSS
VL: QSALTQPASVSGSPGQSITISCTGTSSDVGGYKFVSWYQQHPGKAPKLMIYEVSNRPSGVSNRFSGSKSGNTASLTISGLQAEDEADYYCNSYTSSSTWVFGGGTKLTVL
B8: C552 (antibody, V domains shown)
VH: QVQLVESGGGVVQPGRSLRLSCAASGFTFSSYAMHWVRQAPGKGLEWVALISYDGSNKHYADSVKGRFTISRDNSKNTLYLQMNSLRAEDTAVYYCARAGTTNSDYFDYWGQGTLVTVSS
VL: SYELTQPPSVSVAPGKTARITCGGNNIGSKSVHWYQQKPGQAPVLVIYYDTDRPSGIPERFSGSNSGNTATLTISRVEAGDEADYYCQVWDSSSALWVFGGGTKLTVL
B9: C553 (antibody, V domains shown)
VH: B8 VH with S31N, A33E, M34I, L50G, N57T, H59Y, A88P, Y94F
VL: B8 VL with K16M, N26T, P39A, T51S, A95V
B10: C549 (antibody, V domains shown)
VH: QVQLVQSGAEVKKPGSSVKVSCKASGGTFSTSAISWVRQAPGQGLEWMGGIIPFFGTPNYAQKFQGRVTIIADESTTTAYMELSGLRFEDSAVYYCARREPYGPRDYYYFFGMDVWGPGTTVTVSS
VL: QSALTQPPFASASLGASVTLTCTLSSDYSYYKVDWYQQRPGKGPRFVIRVGPGGIVGSKGDGFPDRFSVLGSGLNRSLTINNIQEEDEGDYHCGADEGSGGTFVGVFGGGTKLTV
B11: C542 (antibody, V domains shown)
VH: EVQLVESGGGLVQPGGSLRLSCAASGLTVTSNYMSWVRQAPGRGLEWVSLIYPGGTTYYADSVKGRFTVSRDNSKNTLYLQMDSLRAEDTGVYYCARETLGRGGDCWGQGTLVTVSS
VL: DIQMTQSPSSLSASVGDRVTITCQASQDISNFLNWYQQKPGKAPKLLIYDASNLETGVPSRFSGSRSGTDFTFTISSLQPDDIATYYCQQYDNLPRSFGQGTKLEIK
B12: C550 (antibody, V domains shown)
VH: EVQLVQSGAEVKKPGESLKISCKGSGYRFTNYWIGWVRQMPGKGLEWMGIIYPGDSDTRYSPSFQGQVTISADKSITTAYLQWSSLKASDTAMYYCARLSDRWYSPFDPWGQGTLVTVSS
VL: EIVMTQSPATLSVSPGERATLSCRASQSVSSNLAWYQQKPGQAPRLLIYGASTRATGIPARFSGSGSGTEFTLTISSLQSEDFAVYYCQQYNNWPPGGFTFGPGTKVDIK
B13: C532 (antibody, V domains shown)
VH: B12 VH with M48I, I50N, Y52F, T58S, A72V, K74M, Q82H, M93I, D101E, P109S
VL: EIVMTQSPATLSVSPGERATLSCRASQSVSSNLAWYQQKPGQAPRLLIYGASTRATGFPARFSGSGSGTEFTLTISSLQSEDFAVYFCQQYNNWPPGGFTFGPGTKVDIK
B14: C558 (antibody, V domains shown)
VH: EVQLVQSGAEVKKPGESLKISCKVSGYTFTNYWIGWVRQMPGKGLEWMGIIYPGDSDTRYSPSFQGQVTISADKSIITAYLQWSSLKASDTAMYYCARVPSSSDYGDYGGFEYWGQGTLVTVSS
VL: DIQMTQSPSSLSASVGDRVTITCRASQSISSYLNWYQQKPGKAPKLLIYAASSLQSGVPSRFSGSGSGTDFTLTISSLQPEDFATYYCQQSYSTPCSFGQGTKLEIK
B15: C559 (antibody, V domains shown)
VH: B14 VH with Y52F, K74R, I77T, S84R
VL: DIQMTQSPSSLSASVGDRVTITCRASQTITIYLNWYQQKPGKAPKLLIYAASSLQSGVPSRFSGSGSGTDFTLTISSLQPEDFATYYCQQSYSTPCSFGQGTKLEIK
B16: C556 (antibody, V domains shown)
VH: QVQLVQSGAEVKKPGASVKVSCKASGYTFTYYYMHWVRQAPGQGLEWMGIINPSGGSTSYAQKFQGRVTMTRDTSTSTVYMELSSLRSEDTAVYYCARPLLPGETGSLNRLDYWGQGTLVTVSS
VL: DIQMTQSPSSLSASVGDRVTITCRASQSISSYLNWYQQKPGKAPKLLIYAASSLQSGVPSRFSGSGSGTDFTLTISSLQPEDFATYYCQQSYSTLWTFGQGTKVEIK
B17: C548 (antibody, V domains shown)
VH: QVQLVQSGAEVKKPGSSVKVSCKASGGTFSSYAISWVRQAPGQGLEWMGGIIPIFGTANYAQKFQGRVTITADESTSTAYMELSSLRSEDTAVYYCARREAYGPRDYYYYYGMDVWGQGTTVTVSS
VL: QSALTQPPSASASLGASVTLTCTLSSGYSNYKVDWYQQRPGKGPRFVMRVGTGGIVGSKGDGIPDRFSVLGSGLNRYLTIKNIQEEDESDYHCGADQGSGSNFVGVFGGGTKLTVL
B18: C213 (antibody, V domains shown)
VH: EVQLVESGGGLVKPGGSLRLSCAASGFTFSSYSMNWVRQAPGKGLEWVSSISSSSSYIYYADSVKGRFTISRDNAKNSLYLQMNSLRAEDTAVYYCARVQVGARGWVDYWGQGTLVTVSS
VL: NFMLTQPHSVSESPGKTVTISCTRSSGSIASNYVQWYQQRPGSAPTTVIYEDNERPSGVPDRFSGSIDSSSNSASLTISGLKTEDEADYYCQSYDRINWVFGGGTKLTVL
B19: C545 (antibody, V domains shown)
VH: B18 VH with V5L, S31D, N35T, S50F, S56T, N77S, S85R, A97T, V107A
VL: B18 VL with H8L, S43G, N53T, E54Q, Y94C, R96T, L110V
B20: C217 (antibody, V domains shown)
VH: B18 VH with S50F, S54R
VL: B18 VL with E54Q, R96S
B21: C544 (antibody, V domains shown)
VH: QVQLVQSGAEVKKPGASVKVSCKASGYTFSSHDINWVRQATGQGLEWVGWMNPNSGNTGSAQSFQGRVTLTRNASISTAYLELSSLRSEDTAVYFCARGFSLTWYFDLWGRGTLVTVSS
VL: SYELTQPPSVSAAPGKTARITCGGNNIGGKNVHWYQQKPGQAPVLVVFDDSDRPSGIPERFSGSNSGNTATLTISRVEAGDEADYYCQLWDSTSDHPDVVFGGGTQLTVL
B22: C560 (antibody, V domains shown)
VH: EVQLVESGGGLVQPGRSLRLSCAASGFTFDDYAMHWVRQAPGKGLEWVSGVSWNSGTIGYADSVKGRFTISRDNAKNSLYLQMNSLRAEDTALYYCAKIADIVRAYDFWSGQHFDAFDIWGQGTMVTVSS
VL: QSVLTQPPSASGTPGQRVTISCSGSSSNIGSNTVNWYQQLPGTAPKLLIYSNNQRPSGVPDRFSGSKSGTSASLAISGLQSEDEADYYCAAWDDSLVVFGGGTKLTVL
B23: C561 (antibody, V domains shown)
VH: B22 VH with M34I, T69F, L93W, I102L, R104G, W109R, D115A, I119V
VL: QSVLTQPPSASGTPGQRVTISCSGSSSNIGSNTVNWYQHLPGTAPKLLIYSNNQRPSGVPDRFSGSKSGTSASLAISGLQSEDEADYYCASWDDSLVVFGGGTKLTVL
B24: C533 (antibody, V domains shown)
VH: EVQLVESGGSLVKPGGSLRLSCVASGLTFNHAWMSWVRQAPGKGLEWVGRIKSKIDGGTTDYAAPVKGRFTISRDDSKSTQYLQMNSLKTEDTAVYYCTTDCFWRLGGTTCYEHDAFDVWGQGTMVTVSS
VL: DIQMTQSPSSLSASVGDRVTITCRASQAIATFLNWYQQKPGKAPKLLIYAASSLQSGVPSRFSGSGSGTDFTLTISNLQPEDFATYYCQQSYNSLHFGGGTKVEIK
B25: C555 (antibody, V domains shown)
VH: EVQLVESGGGLVKPGGSLRLSCAASGLTFSTTWMSWVRQAPGKGLEWVGRIKSKGDGGTTDFAGPVKGRFSISRDDSKNTLYLHMNSLKTEDTAVYYCTTDDPGSYYYGMDVWGQGTTVTVSS
VL: QTVVTQEPSLTVSPGGTVTLTCASSTGAVTSGHYPYWFQQKPGQAPRTLIYATSNKHSWTPARFSGSLLGGKAALTLSGAQPEDEADYYCLLSYSGARVFGGGTKLTVL
B26: C564 (antibody, V domains shown)
VH: EVQLLESGGGLVQPGTSLRLSCAASGFTFSSYAMSWVRQAPGKGLEWVSAISSSGGSTYYADSVKGRFTISRDNSKNTLYLHMNSLRAEDTAVYYCATERIAVAGTRMYNWFDPWGQGTLVTVSS
VL: DIQMTQSPSSLSASVGDRVTLTCRASQSISSYLNWYQQKPGKAPNLLIYAASSLQSGVPSRFSGSGSGTDFTLTISSLQPEDFATYYCQQSYSAPPWTFGQGTKVEIK
B27: C546 (antibody, V domains shown)
VH: EVQLLESGGGLVHPGGSLRLSCAASGFTFSTYAMHWVRQAPGKGLEWVSAISGSGTGTFYADSVKGRFSISRDNSKNTLYLQMNSLRAEDTAVYYCATERIAVSDTRMYNWFDPWGQGTLVTVSS
VL: B26 VL with S28G, S31T

Molecular target: SARS-CoV-2 spike receptor binding domain (RBD), wild type (SARS-CoV-2, UniProt P0DTC2 319-539)
Experiment: ELISA on coated RBD protein

Binder	EC50 [ng/mL]
B1	1.93
B2	1.53
B3	1.41
B4	1.25
B5	2.01
B6	1.65
B7	2.28

Molecular target: SARS-CoV-2 spike receptor binding domain (RBD), wild type (SARS-CoV-2, UniProt P0DTC2 319-539)
Experiment: ELISA, RBD protein coated, mAb titrated

Binder	EC50 [ng/mL]
B8	1.08
B9	1.19
B10	1.76
B11	1.07
B12	2.56
B13	1
B14	2.41
B15	2.89
B16	1.36
B17	1.72
B18	2.02
B19	3.68
B20	2.28
B21	2.34
B22	1.6
B23	1.53
B24	1.61
B25	2.88
B26	14.6
B27	3.57
